Settings: Bacillus amyloliquefaciens; pH 6.3; 25 °C; Urea; Fluorescence; MES 450 mM; reversible: yes; whole UniProt chain shown

B1: Ribonuclease wild type, P00648 (protein)
chain: MMKMEGIALKKRLSWISVCLLVLVSAAGMLFSTAAKTETSSHKAHTEAQVINTFDGVADYLQTYHKLPDNYITKSEAQALGWVASKGNLADVAPGKSIGGDIFSNREGKLPGKSGRTWREADINYTSGFRNSDRILYSSDWLIYKTTDHYQTFTKIR
denaturant m value: 1.92 kcal/mol/M | denaturant midpoint (higher = more stable): 4.6 M | unfolding free energy: 8.83 kcal/mol

— FireProtDB (doi:10.1016/0022-2836(92)90907-2)
